Assay results from paper PMC6494913 (Nature Communications, 2019).
One block for each molecule: values may come before it.

What was measured:
[1] = target: NLuc-tagged GIRK (GIRK1/GIRK2-Luc) (human) (UniProt P48549); assay: FRET or BRET; agonist-induced BRET in living HEK293T cells between Venus-Gβγ (acceptor) and GRK-Luc or GIRK-Luc (donor); co-expressed GPCR (DOR or D2R), PTX S1 and a PTX-insensitive Gα (C351A); agonist 10 μM, then antagonist; PBS with 0.5 mM MgCl2 and 0.1% glucose; read 3 min after ligand
[2] = target: KirBac1.3-GIRK1 chimeric protein (GIRK chimera) in MSP1E3 nanodiscs (mouse | Burkholderia xenovorans) (UniProt P63250); assay: NMR titration; 1H-13C HMQC (methyl-TROSY) of 11 μM Gα[ILVA]βγ with or without 22 μM (2 eq.) GIRK chimera-nanodiscs; 20 °C; 20 mM HEPES-NaOH pH 7.0, 150 mM KCl, 0.5 mM GDP, 0.1 mM TCEP; signal intensity reductions; apparent Kd estimated
[3] = target: T1, Gβγ dimer (human Gβ1 and His6-tagged human Gγ2 (C68S)) (human, UniProt P62873 1-340; P59768 1-71, C68S); assay: SEC; purified Gα and Gβγ mixed with a slight excess of Gβγ; Gαβγ isolated by gel filtration on Superdex 200; conditions: both partners purified
T1 construct: G protein β1 subunit (Gβ1), human; G protein γ2 subunit (Gγ2), human; also called [non-labeled]βγ

NLuc-tagged GIRK (GIRK1/GIRK2-Luc) (human), sequence (P48549 whole entry, chain 1 of 2): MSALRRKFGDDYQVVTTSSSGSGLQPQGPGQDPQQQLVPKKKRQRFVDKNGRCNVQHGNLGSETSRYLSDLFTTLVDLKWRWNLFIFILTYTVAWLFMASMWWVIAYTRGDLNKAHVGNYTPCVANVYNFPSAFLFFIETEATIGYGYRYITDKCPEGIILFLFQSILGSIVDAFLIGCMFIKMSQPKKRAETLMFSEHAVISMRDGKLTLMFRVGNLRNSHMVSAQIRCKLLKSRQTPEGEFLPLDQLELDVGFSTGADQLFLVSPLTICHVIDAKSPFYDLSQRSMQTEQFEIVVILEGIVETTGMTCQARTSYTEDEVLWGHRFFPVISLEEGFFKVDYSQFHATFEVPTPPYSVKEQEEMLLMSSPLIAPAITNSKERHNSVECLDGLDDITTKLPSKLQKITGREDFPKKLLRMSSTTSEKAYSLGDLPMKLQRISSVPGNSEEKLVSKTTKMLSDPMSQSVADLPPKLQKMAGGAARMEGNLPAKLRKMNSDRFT
NLuc-tagged GIRK (GIRK1/GIRK2-Luc) (human), sequence (P48051 whole entry, chain 2 of 2, further chain): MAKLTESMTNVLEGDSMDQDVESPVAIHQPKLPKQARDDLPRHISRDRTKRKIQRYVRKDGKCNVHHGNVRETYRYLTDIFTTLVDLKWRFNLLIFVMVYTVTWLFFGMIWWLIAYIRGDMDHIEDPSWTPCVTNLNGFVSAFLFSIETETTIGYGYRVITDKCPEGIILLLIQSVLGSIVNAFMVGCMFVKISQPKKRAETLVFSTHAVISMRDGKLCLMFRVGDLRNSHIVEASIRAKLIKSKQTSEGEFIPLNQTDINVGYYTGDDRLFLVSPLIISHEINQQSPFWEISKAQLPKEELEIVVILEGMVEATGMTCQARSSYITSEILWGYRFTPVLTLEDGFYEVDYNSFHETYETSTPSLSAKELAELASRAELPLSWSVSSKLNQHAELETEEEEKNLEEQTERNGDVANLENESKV

specificity factor (ΔBRET GIRK/ΔBRET GRK), with D2R and Gαi3 [1]: 0.303
specificity factor (ΔBRET GIRK/ΔBRET GRK), with D2R and Gαiqi [1]: 0.157
specificity factor (ΔBRET GIRK/ΔBRET GRK), with D2R and Gαqi5 [1]: 0.091
specificity factor (ΔBRET GIRK/ΔBRET GRK), with D2R and Gαqiqi5 [1]: 0.236
specificity factor (ΔBRET GIRK/ΔBRET GRK), with DOR and Gαi3 [1]: 0.286
specificity factor (ΔBRET GIRK/ΔBRET GRK), with DOR and Gαiqi [1]: 0.148
specificity factor (ΔBRET GIRK/ΔBRET GRK), with Gαi3-q(αA) [1]: 0.159
specificity factor (ΔBRET GIRK/ΔBRET GRK), with Gαi3-q(αB) [1]: 0.248
specificity factor (ΔBRET GIRK/ΔBRET GRK), with Gαi3-q(αE) [1]: 0.249
Molecule: Venus-tagged Gβγ (Venus 156–239-Gβ1 with Venus 1–155-Gγ2) (from UniProt P62873 1-340; P59768 1-71) (complex)

Kd [2]: > 200 µM
Molecule: Gαi3βγ heterotrimer (Gαi3[ILVA] complexed with non-labeled Gβ1γ2(C68S)), GDP-bound (from UniProt P08754 1-354; P62873 1-340; P59768 1-71)

binding result [3]: binds
B1: Gαiqi (chimeric Gα: GTPase domain of Gαi3, helical domain of Gαq), purified (other, human, UniProt P08754 1-62, looked up)
chain: MGCTLSAEDKAAVERSKMIDRNLREDGEKAAKEVKLLLLGAGESGKSTIVKQMKIIHEDGYSDEDKRGFTKLVYQNIFTAMQAMIRAMDTLKIPYKYEHNKAHAQLVREVDVEKVSAFENPYVDAIKSLWNDPGIQECYDRRREYQLSDSTKYYLNDLDRVADPAYLPTQQDVLRTRVKTTGIVETHFTFKDLYFKMFDVGGQRSERKKWIHCFEGVTAIIFCVALSDYDLVLAEDEEMNRMHESMKLFDSICNNKWFTETSIILFLNKKDLFEEKIKRSPLTICYPEYTGSNTYEEAAAYIQCQFEDLNRRKDTKEIYTHFTCATDTKNVQFVFDAVTDVIIKNNLKECGLY
notes: Gαi3, human, GTPase domain residues 1-62; Gαq, human, helical domain residues 69-180; Gαi3, human, GTPase domain residues 176-354; also called Gαiqi[ILVA]; source: E. coli BL21-CodonPlus (DE3)-RP, purified in the same way as the wild-type Gαi3; not shown: His10, N-terminal, cleaved
